Molecular target: Merkel cell polyomavirus (MCPyV) major capsid protein VP1, amino acids 38-320, unassembled pentamer (Merkel cell polyomavirus (w162))
Assay: crystal structure; unassembled VP1 pentamers, native and soaked with DSL, 3SLN or GD1a; hanging drop at 20°C, 100 mM sodium cacodylate pH 6.5, 6% PEG 3,350, 300 mM magnesium chloride; four VP1 pentamers in the asymmetric unit

## Merkel cell polyomavirus (MCPyV) major capsid protein VP1, amino acids 38-320, unassembled pentamer (domain or fragment)
  stoichiometry N: 5
